Test results from patent publication US7462599B2, “Use of effectors of glutaminyl and glutamate cyclases” (Probiodrug AG, priority 2003, dated 2008).

Molecular target: QC (Homo sapiens, UniProt Q16769)
Test: LC/MS analysis of QC-catalyzed pyroglutamate formation
Format: biochemical

Chain of QC (Q16769 29-361): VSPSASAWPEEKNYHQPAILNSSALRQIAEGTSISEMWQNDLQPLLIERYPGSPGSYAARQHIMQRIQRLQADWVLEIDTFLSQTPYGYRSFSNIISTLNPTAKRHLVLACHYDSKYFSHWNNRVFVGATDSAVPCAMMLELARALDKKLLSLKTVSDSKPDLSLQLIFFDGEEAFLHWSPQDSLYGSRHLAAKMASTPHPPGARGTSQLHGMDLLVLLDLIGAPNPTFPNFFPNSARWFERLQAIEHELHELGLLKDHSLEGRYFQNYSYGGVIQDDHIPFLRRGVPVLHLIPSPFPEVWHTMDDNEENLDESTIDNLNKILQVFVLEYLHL

formation of N-terminal pyroglutamate catalyzed by QC: is catalyzed by QC
B1: MCP-2 isoforms: Human Monocyte Chemotactic Protein 2 (MCP-2) isoforms, 76 residue chemokine (protein, UniProt P80075 24-99, looked up)
C-C motif chemokine 8: QPDSVSIPITCCFNVINRKIPIQRLESYTRITNIQCPKEAVIFKTKRGKEVCADPKERWVRDSMKHLDQIFQNLKP
